Reference: the supplement of paper PMC10567573

B1: KCTD10 (parent)
chain: SSKEEQKLIATSNKPAVKLLYNRS

Variants of: B1
Experiment: protein stability index of a GFP-peptide fusion (GPS, HEK-293T) (PSI 1-6); higher = more stable
Details: c terminus: a fixed tail appended
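Further: lentivirally expressed fusions sorted by FACS into six bins by GFP to DsRed ratio, PSI derived from sequencing read proportions per bin multiplied by bin number.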

Q: For SSKEEQKLIKTSNKPAVKLLYNRS [A10K], which protein stability index is on record?
A: Its protein stability index is 4.15.

Q: For SSKEEQKLINTSNKPAVKLLYNRS [A10N], which protein stability index is on record?
A: The protein stability index was 4.41.

Q: With SSKEEQKLIYTSNKPAVKLLYNRS [A10Y] as the variant, how does the protein stability index read?
A: The protein stability index was 3.65.

Q: Which protein stability index does the source give for SSKEEQKLIMTSNKPAVKLLYNRS [A10M] here?
A: The protein stability index was 3.51.

Q: For SSKEEQKLIETSNKPAVKLLYNRS [A10E], which protein stability index is on record?
A: Its protein stability index is 4.51.

Q: With SSKEEQKLITTSNKPAVKLLYNRS [A10T] as the variant, how does the protein stability index read?
A: Its protein stability index is 4.39.

Q: For SSKEEQKLIGTSNKPAVKLLYNRS [A10G], which protein stability index is on record?
A: The protein stability index was 3.86.

Q: Which protein stability index does the source give for SSKEEQKLICTSNKPAVKLLYNRS [A10C] here?
A: The protein stability index was 3.88.

Q: With SSKEEQKLIVTSNKPAVKLLYNRS [A10V] as the variant, how does the protein stability index read?
A: Its protein stability index is 3.45.

Q: For SSKEEQKLIITSNKPAVKLLYNRS [A10I], which protein stability index is on record?
A: The protein stability index was 2.74.

Q: Which protein stability index does the source give for SSKEEQKLIRTSNKPAVKLLYNRS [A10R] here?
A: The protein stability index was 3.88.

Q: With SSKEEQKLIWTSNKPAVKLLYNRS [A10W] as the variant, how does the protein stability index read?
A: The protein stability index was 3.51.

Q: For SSKEEQKLIQTSNKPAVKLLYNRS [A10Q], which protein stability index is on record?
A: Its protein stability index is 4.27.

Q: With SSKEEQKLISTSNKPAVKLLYNRS [A10S] as the variant, how does the protein stability index read?
A: The protein stability index was 4.01.

Q: For SSKEEQKLIPTSNKPAVKLLYNRS [A10P], which protein stability index is on record?
A: The protein stability index was 3.78.

Q: With SSKEEQKLIDTSNKPAVKLLYNRS [A10D] as the variant, how does the protein stability index read?
A: The protein stability index was 3.78.

Q: With SSKEEQKLIHTSNKPAVKLLYNRS [A10H] as the variant, how does the protein stability index read?
A: Its protein stability index is 4.2.

Q: With SSKEEQKLIFTSNKPAVKLLYNRS [A10F] as the variant, how does the protein stability index read?
A: Its protein stability index is 3.44.

Q: For SSKEEQKLILTSNKPAVKLLYNRS [A10L], which protein stability index is on record?
A: The protein stability index was 3.73.

Q: Which protein stability index does the source give for SSKEEGKLIATSNKPAVKLLYNRS [Q6G] here?
A: Its protein stability index is 3.8.

Q: With SSKEECKLIATSNKPAVKLLYNRS [Q6C] as the variant, how does the protein stability index read?
A: The protein stability index was 4.15.

Q: With SSKEEAKLIATSNKPAVKLLYNRS [Q6A] as the variant, how does the protein stability index read?
A: Its protein stability index is 4.23.

Q: For SSKEEWKLIATSNKPAVKLLYNRS [Q6W], which protein stability index is on record?
A: The protein stability index was 2.79.

Q: Which protein stability index does the source give for SSKEEFKLIATSNKPAVKLLYNRS [Q6F] here?
A: Its protein stability index is 3.15.

Q: For SSKEENKLIATSNKPAVKLLYNRS [Q6N], which protein stability index is on record?
A: Its protein stability index is 3.96.

Q: With SSKEEKKLIATSNKPAVKLLYNRS [Q6K] as the variant, how does the protein stability index read?
A: Its protein stability index is 3.1.

Q: Which protein stability index does the source give for SSKEEIKLIATSNKPAVKLLYNRS [Q6I] here?
A: The protein stability index was 3.33.

Q: With SSKEEMKLIATSNKPAVKLLYNRS [Q6M] as the variant, how does the protein stability index read?
A: The protein stability index was 3.56.

Q: With SSKEEVKLIATSNKPAVKLLYNRS [Q6V] as the variant, how does the protein stability index read?
A: The protein stability index was 3.6.

Q: With SSKEEEKLIATSNKPAVKLLYNRS [Q6E] as the variant, how does the protein stability index read?
A: Its protein stability index is 4.52.

Q: For SSKEEYKLIATSNKPAVKLLYNRS [Q6Y], which protein stability index is on record?
A: The protein stability index was 4.01.

Q: Which protein stability index does the source give for SSKEERKLIATSNKPAVKLLYNRS [Q6R] here?
A: Its protein stability index is 3.93.

Q: With SSKEESKLIATSNKPAVKLLYNRS [Q6S] as the variant, how does the protein stability index read?
A: Its protein stability index is 3.86.

Q: With SSKEEPKLIATSNKPAVKLLYNRS [Q6P] as the variant, how does the protein stability index read?
A: Its protein stability index is 4.

Q: For SSKEETKLIATSNKPAVKLLYNRS [Q6T], which protein stability index is on record?
A: Its protein stability index is 4.44.

Q: Which protein stability index does the source give for SSKEEHKLIATSNKPAVKLLYNRS [Q6H] here?
A: Its protein stability index is 4.08.

Q: With SSKEEDKLIATSNKPAVKLLYNRS [Q6D] as the variant, how does the protein stability index read?
A: Its protein stability index is 4.5.

Q: For SSKEELKLIATSNKPAVKLLYNRS [Q6L], which protein stability index is on record?
A: The protein stability index was 3.59.

Q: Which protein stability index does the source give for SSKEEQKQIATSNKPAVKLLYNRS [L8Q] here?
A: Its protein stability index is 4.6.

Q: Which protein stability index does the source give for SSKEEQKEIATSNKPAVKLLYNRS [L8E] here?
A: The protein stability index was 4.96.

Q: With SSKEEQKFIATSNKPAVKLLYNRS [L8F] as the variant, how does the protein stability index read?
A: The protein stability index was 3.51.

Q: With SSKEEQKYIATSNKPAVKLLYNRS [L8Y] as the variant, how does the protein stability index read?
A: The protein stability index was 4.02.

Q: With SSKEEQKHIATSNKPAVKLLYNRS [L8H] as the variant, how does the protein stability index read?
A: The protein stability index was 4.46.

Q: Which protein stability index does the source give for SSKEEQKMIATSNKPAVKLLYNRS [L8M] here?
A: Its protein stability index is 4.43.

Q: With SSKEEQKVIATSNKPAVKLLYNRS [L8V] as the variant, how does the protein stability index read?
A: Its protein stability index is 4.66.

Q: For SSKEEQKPIATSNKPAVKLLYNRS [L8P], which protein stability index is on record?
A: The protein stability index was 4.88.

Q: For SSKEEQKKIATSNKPAVKLLYNRS [L8K], which protein stability index is on record?
A: Its protein stability index is 4.75.

Q: For SSKEEQKRIATSNKPAVKLLYNRS [L8R], which protein stability index is on record?
A: The protein stability index was 4.34.

Q: For SSKEEQKWIATSNKPAVKLLYNRS [L8W], which protein stability index is on record?
A: The protein stability index was 3.79.

Q: Which protein stability index does the source give for SSKEEQKAIATSNKPAVKLLYNRS [L8A] here?
A: Its protein stability index is 4.88.

Q: For SSKEEQKSIATSNKPAVKLLYNRS [L8S], which protein stability index is on record?
A: Its protein stability index is 4.62.

Q: For SSKEEQKTIATSNKPAVKLLYNRS [L8T], which protein stability index is on record?
A: The protein stability index was 4.47.

Q: With SSKEEQKIIATSNKPAVKLLYNRS [L8I] as the variant, how does the protein stability index read?
A: The protein stability index was 4.32.

Q: For SSKEEQKNIATSNKPAVKLLYNRS [L8N], which protein stability index is on record?
A: The protein stability index was 4.31.

Q: With SSKEEQKCIATSNKPAVKLLYNRS [L8C] as the variant, how does the protein stability index read?
A: Its protein stability index is 4.42.

Q: Which protein stability index does the source give for SSKEEQKGIATSNKPAVKLLYNRS [L8G] here?
A: The protein stability index was 4.51.

Q: For SSKEEQKDIATSNKPAVKLLYNRS [L8D], which protein stability index is on record?
A: The protein stability index was 4.88.

Q: For SSKMEQKLIATSNKPAVKLLYNRS [E4M], which protein stability index is on record?
A: The protein stability index was 2.82.

Q: For SSKHEQKLIATSNKPAVKLLYNRS [E4H], which protein stability index is on record?
A: Its protein stability index is 3.09.

Q: For SSKGEQKLIATSNKPAVKLLYNRS [E4G], which protein stability index is on record?
A: The protein stability index was 3.46.

Q: Which protein stability index does the source give for SSKLEQKLIATSNKPAVKLLYNRS [E4L] here?
A: Its protein stability index is 3.52.

Q: For SSKNEQKLIATSNKPAVKLLYNRS [E4N], which protein stability index is on record?
A: The protein stability index was 3.87.

Q: For SSKIEQKLIATSNKPAVKLLYNRS [E4I], which protein stability index is on record?
A: The protein stability index was 3.06.

Q: With SSKTEQKLIATSNKPAVKLLYNRS [E4T] as the variant, how does the protein stability index read?
A: The protein stability index was 3.26.

Q: With SSKWEQKLIATSNKPAVKLLYNRS [E4W] as the variant, how does the protein stability index read?
A: The protein stability index was 3.24.

Q: For SSKFEQKLIATSNKPAVKLLYNRS [E4F], which protein stability index is on record?
A: Its protein stability index is 3.6.

Q: Which protein stability index does the source give for SSKAEQKLIATSNKPAVKLLYNRS [E4A] here?
A: Its protein stability index is 3.3.

Q: With SSKKEQKLIATSNKPAVKLLYNRS [E4K] as the variant, how does the protein stability index read?
A: The protein stability index was 3.69.

Q: Which protein stability index does the source give for SSKCEQKLIATSNKPAVKLLYNRS [E4C] here?
A: The protein stability index was 3.55.

Q: With SSKVEQKLIATSNKPAVKLLYNRS [E4V] as the variant, how does the protein stability index read?
A: Its protein stability index is 3.5.

Q: With SSKDEQKLIATSNKPAVKLLYNRS [E4D] as the variant, how does the protein stability index read?
A: Its protein stability index is 4.01.

Q: With SSKPEQKLIATSNKPAVKLLYNRS [E4P] as the variant, how does the protein stability index read?
A: Its protein stability index is 3.64.

Q: Which protein stability index does the source give for SSKQEQKLIATSNKPAVKLLYNRS [E4Q] here?
A: Its protein stability index is 4.06.

Q: For SSKYEQKLIATSNKPAVKLLYNRS [E4Y], which protein stability index is on record?
A: Its protein stability index is 2.83.

Q: For SSKREQKLIATSNKPAVKLLYNRS [E4R], which protein stability index is on record?
A: Its protein stability index is 3.66.

Q: For SSKSEQKLIATSNKPAVKLLYNRS [E4S], which protein stability index is on record?
A: Its protein stability index is 3.99.

Q: With SSKEEQKLIAASNKPAVKLLYNRS [T11A] as the variant, how does the protein stability index read?
A: The protein stability index was 4.42.

Q: For SSKEEQKLIAISNKPAVKLLYNRS [T11I], which protein stability index is on record?
A: The protein stability index was 3.73.

Q: Which protein stability index does the source give for SSKEEQKLIADSNKPAVKLLYNRS [T11D] here?
A: Its protein stability index is 4.68.

Q: For SSKEEQKLIAGSNKPAVKLLYNRS [T11G], which protein stability index is on record?
A: Its protein stability index is 4.16.

Q: With SSKEEQKLIAQSNKPAVKLLYNRS [T11Q] as the variant, how does the protein stability index read?
A: The protein stability index was 4.15.

Q: Which protein stability index does the source give for SSKEEQKLIANSNKPAVKLLYNRS [T11N] here?
A: The protein stability index was 3.92.

Q: With SSKEEQKLIARSNKPAVKLLYNRS [T11R] as the variant, how does the protein stability index read?
A: The protein stability index was 3.37.

Q: Which protein stability index does the source give for SSKEEQKLIAPSNKPAVKLLYNRS [T11P] here?
A: The protein stability index was 3.97.

Q: With SSKEEQKLIAFSNKPAVKLLYNRS [T11F] as the variant, how does the protein stability index read?
A: Its protein stability index is 3.63.

Q: With SSKEEQKLIAWSNKPAVKLLYNRS [T11W] as the variant, how does the protein stability index read?
A: Its protein stability index is 3.35.

Q: With SSKEEQKLIASSNKPAVKLLYNRS [T11S] as the variant, how does the protein stability index read?
A: Its protein stability index is 4.26.

Q: With SSKEEQKLIAHSNKPAVKLLYNRS [T11H] as the variant, how does the protein stability index read?
A: The protein stability index was 3.94.

Q: Which protein stability index does the source give for SSKEEQKLIALSNKPAVKLLYNRS [T11L] here?
A: Its protein stability index is 3.7.

Q: Which protein stability index does the source give for SSKEEQKLIAVSNKPAVKLLYNRS [T11V] here?
A: Its protein stability index is 3.75.

Q: Which protein stability index does the source give for SSKEEQKLIAESNKPAVKLLYNRS [T11E] here?
A: The protein stability index was 4.58.

Q: Which protein stability index does the source give for SSKEEQKLIAYSNKPAVKLLYNRS [T11Y] here?
A: Its protein stability index is 3.6.

Q: With SSKEEQKLIAMSNKPAVKLLYNRS [T11M] as the variant, how does the protein stability index read?
A: The protein stability index was 3.6.

Q: For SSKEEQKLIACSNKPAVKLLYNRS [T11C], which protein stability index is on record?
A: Its protein stability index is 3.61.
